Assay results from patent US20120207760A1.

B1: TCN-523 (5248_A17) (antibody, V domains shown)
VH: QVQLVQSGAEVKKPGSSVKVSCKASGGSFSNYAFSWVRQAPGQGLEWMGGTIPLLGTTNYAQKFQGRVTISADQFTSTAYMELGSLRSEDTAVYYCTRRKMTTAFDSWGQGTLVTVSS
VL: QPVLTQPPSASASLGASVTLTCTLSSAYSNYKVDWYQQRPGKGPRFVMRVGTGGIVGSKGDGIPDRFSVLGSGLNRYLTIKNIQEEDESDYHCGADHGSGSNFVSPYVFGGGTKLTVL
B2: TCN-504 (3251_K17) (antibody, V domains shown)
VH: QVQLQESGPGLVKPSETLSLTCAVSGVSISNIDFYWGWIRQPPGKGLEWIGNIYYTGITFYNPSLSSRVAISIDTSKNQFSLTLTSVTAADTAMYYCARHYGDSEAINDAFDIWGQGTMLTVSS
VL: EIVMTQSPATLSVSPGERATLSCRASQSVGNSLAWYQQRPGQAPRLLIYGASTRATGIPPRFSGSGSGTEFTLTISSLQTEDFAVYYCQQYINWRPLSFGGGTKVEIK

Experiments:
Details in all cases: remark: other sources report otherwise
[1] = target: T1, recombinant homotrimeric HA, A/Indonesia/5/05 H5N1 (Influenza A virus A/Indonesia/5/05 (H5N1)); test: trimeric HA microarray, transfection set 4
[2] = target: T2, recombinant homotrimeric HA, A/Japan/305/57 H2N2 (Influenza A virus A/Japan/305/57 (H2N2)); test: trimeric HA microarray, transfection set 4
[3] = target: T3, recombinant homotrimeric HA, A/California/4/09 H1N1 (Influenza A virus A/California/4/09 (H1N1)); test: trimeric HA microarray, transfection set 4
[4] = target: T4, recombinant homotrimeric HA, A/Vietnam/1203/04 H5N1 (Influenza A virus A/Vietnam/1203/04 (H5N1)); test: trimeric HA microarray, transfection set 4
[5] = target: T5, recombinant homotrimeric HA, A/Solomon Islands/3/06 H1N1 (Influenza A virus A/Solomon Islands/3/06 (H1N1)); test: trimeric HA microarray, transfection set 4
[6] = target: T6, recombinant homotrimeric HA, A/South Carolina/1/18 H1N1 (Influenza A virus A/South Carolina/1/18 (H1N1)); test: trimeric HA microarray, transfection set 4
[7] = target: T7, recombinant homotrimeric HA, A/swine/Ontario/01911-2/99 H4N6 (Influenza A virus A/swine/Ontario/01911-2/99 (H4N6)); test: trimeric HA microarray, transfection set 4
[8] = target: T1, recombinant homotrimeric HA, …; test: trimeric HA microarray, transfection set 1
[9] = target: T8, recombinant homotrimeric HA, A/common magpie/Hong Kong/5052/07 H5N1 (Influenza A virus A/common magpie/Hong Kong/5052/07 (H5N1)); test: trimeric HA microarray, transfection set 1
[10] = target: T2, recombinant homotrimeric HA, …; test: trimeric HA microarray, transfection set 1
[11] = target: T9, recombinant homotrimeric HA, A/Hong Kong/2108/03 H9N2 (Influenza A virus A/Hong Kong/2108/03 (H9N2)); test: trimeric HA microarray, transfection set 1
[12] = target: T3, recombinant homotrimeric HA, …; test: trimeric HA microarray, transfection set 1
[13] = target: T4, recombinant homotrimeric HA, …; test: trimeric HA microarray, transfection set 1
[14] = target: T10, recombinant homotrimeric HA, A/Egypt/3300-NAMRU3/08 H5N1 (Influenza A virus A/Egypt/3300-NAMRU3/08 (H5N1)); test: trimeric HA microarray, transfection set 1
[15] = target: T5, recombinant homotrimeric HA, A/Solomon …; test: trimeric HA microarray, transfection set 1
[16] = target: T11, recombinant homotrimeric HA, A/chicken/Vietnam/NCVD-016/08 H5N1 (Influenza A virus A/chicken/Vietnam/NCVD-016/08 (H5N1)); test: trimeric HA microarray, transfection set 1
[17] = target: T6, recombinant homotrimeric HA, A/South …; test: trimeric HA microarray, transfection set 1
[18] = target: T7, recombinant homotrimeric HA, …; test: trimeric HA microarray, transfection set 1
[19] = target: T1, recombinant homotrimeric HA, …; test: trimeric HA microarray, transfection set 3
[20] = target: T8, recombinant homotrimeric HA, A/common …; test: trimeric HA microarray, transfection set 3
[21] = target: T2, recombinant homotrimeric HA, …; test: trimeric HA microarray, transfection set 3
[22] = target: T9, recombinant homotrimeric HA, A/Hong …; test: trimeric HA microarray, transfection set 3
[23] = target: T3, recombinant homotrimeric HA, …; test: trimeric HA microarray, transfection set 3
[24] = target: T4, recombinant homotrimeric HA, …; test: trimeric HA microarray, transfection set 3
[25] = target: T10, recombinant homotrimeric HA, …; test: trimeric HA microarray, transfection set 3
[26] = target: T5, recombinant homotrimeric HA, A/Solomon …; test: trimeric HA microarray, transfection set 3
[27] = target: T11, recombinant homotrimeric HA, …; test: trimeric HA microarray, transfection set 3
[28] = target: T6, recombinant homotrimeric HA, A/South …; test: trimeric HA microarray, transfection set 3
[29] = target: T7, recombinant homotrimeric HA, …; test: trimeric HA microarray, transfection set 3

Binder | Trimeric HA Binding RLU [1] [RLU] | Trimeric HA Binding RLU [2] [RLU] | Trimeric HA Binding RLU [3] [RLU] | Trimeric HA Binding RLU [4] [RLU] | Trimeric HA Binding RLU [5] [RLU] | Trimeric HA Binding RLU [6] [RLU] | Trimeric HA Binding RLU [7] [RLU] | Trimeric HA Binding RLU [8] [RLU] | Trimeric HA Binding RLU [9] [RLU] | Trimeric HA Binding RLU [10] [RLU] | Trimeric HA Binding RLU [11] [RLU] | Trimeric HA Binding RLU [12] [RLU] | Trimeric HA Binding RLU [13] [RLU] | Trimeric HA Binding RLU [14] [RLU] | Trimeric HA Binding RLU [15] [RLU] | Trimeric HA Binding RLU [16] [RLU] | Trimeric HA Binding RLU [17] [RLU] | Trimeric HA Binding RLU [18] [RLU] | Trimeric HA Binding RLU [19] [RLU] | Trimeric HA Binding RLU [20] [RLU] | also measured
B1 | 24500 | 3840 | 28800 | 30900 | 371 | 23000 | 850 | 18500 | 6240 | 191 | 41 | 17700 | 80 | 25500 | 6780 | 10800 | 26400 | 49 | 22000 | 640 | Trimeric HA Binding RLU [21]: 4550 RLU; Trimeric HA Binding RLU [22]: 51 RLU; Trimeric HA Binding RLU [23]: 19400 RLU; Trimeric HA Binding RLU [24]: 22100 RLU; Trimeric HA Binding RLU [25]: 29100 RLU; Trimeric HA Binding RLU [26]: 11000 RLU; Trimeric HA Binding RLU [27]: 18900 RLU; Trimeric HA Binding RLU [28]: 23700 RLU; Trimeric HA Binding RLU [29]: 1640 RLU
B2 | 18200 | 19600 | 549 | 25700 | 14600 | 21700 | 21800 | 16600 | 29700 | 15100 | 78 | 18300 | 1300 | 16100 | 29800 | 27800 | 21500 | 26500 | 18600 | 17800 | Trimeric HA Binding RLU [21]: 36000 RLU; Trimeric HA Binding RLU [22]: 36 RLU; Trimeric HA Binding RLU [23]: 18600 RLU; Trimeric HA Binding RLU [24]: 13300 RLU; Trimeric HA Binding RLU [25]: 18000 RLU; Trimeric HA Binding RLU [26]: 32700 RLU; Trimeric HA Binding RLU [27]: 10300 RLU; Trimeric HA Binding RLU [28]: 27600 RLU; Trimeric HA Binding RLU [29]: 34500 RLU
